Source: patent publication US20240209106A1 (BEIGENE SWITZERLAND, published 2024)
Numbering of substitutions follows the chain as printed. Each block holds one binder with its values, some of them ahead of it.

Tests used:
[1] = target: T1, full-length human CD137 (huCD137) (human, UniProt Q07011 24-255); assay: flow cytometry ligand competition on Hut78/huCD137: BGA-4712 (VH-Fc) in the presence of serially diluted human CD137 ligand-mIgG2a, bound BGA-4712 detected with anti-hu IgG Fc; competitor: BGA-4712 [panel C]
T1 construct: On transduced Hut78 cells (Hut78/huCD137), transiently on HEK293 cells, or natively on PBMC/T cells; also called TNFRSF9; 4-1BB
T1 sequence (Q07011 24-255 limits assumed): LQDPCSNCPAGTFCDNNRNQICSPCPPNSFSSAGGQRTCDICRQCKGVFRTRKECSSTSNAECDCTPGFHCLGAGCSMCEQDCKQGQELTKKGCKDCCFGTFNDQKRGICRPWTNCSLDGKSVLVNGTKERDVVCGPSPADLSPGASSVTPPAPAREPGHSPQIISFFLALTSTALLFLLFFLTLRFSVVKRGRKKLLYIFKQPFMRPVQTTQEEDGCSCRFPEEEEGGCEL

human CD137 ECD-mIgG2a [2] = target: human CD137 ECD-mIgG2a (human); assay: competition ELISA on coated human CD137 ECD-mIgG2a: BGA-5623 (IgG4) in the presence of serially diluted human CD137 ligand ECD-mIgG2a, bound antibody detected with HRP anti-human IgG; competitor: BGA-5623 (IgG4)
human CD137 ECD-mIgG2a (human), sequence (chain, as listed by the source limits assumed): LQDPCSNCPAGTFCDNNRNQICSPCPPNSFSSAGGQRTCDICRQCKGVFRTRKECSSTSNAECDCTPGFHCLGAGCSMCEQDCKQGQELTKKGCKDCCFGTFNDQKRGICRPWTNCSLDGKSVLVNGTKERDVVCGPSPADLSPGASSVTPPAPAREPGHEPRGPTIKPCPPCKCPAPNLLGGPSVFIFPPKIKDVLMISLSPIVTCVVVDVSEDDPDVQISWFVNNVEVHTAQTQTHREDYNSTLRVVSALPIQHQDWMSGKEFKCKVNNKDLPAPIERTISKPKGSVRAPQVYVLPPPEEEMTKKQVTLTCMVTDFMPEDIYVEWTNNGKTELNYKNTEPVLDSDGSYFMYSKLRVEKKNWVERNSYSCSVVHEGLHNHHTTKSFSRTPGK

TNFRSF1A(CD120a) = target: T2, TNFRSF1A(CD120a) (UniProt P19438 22-211, limits assumed); assay: antigen ELISA, receptor coated at 10 ug/ml, detection with HRP anti-human IgG
T2 construct: Bought protein
T2 sequence (looked up): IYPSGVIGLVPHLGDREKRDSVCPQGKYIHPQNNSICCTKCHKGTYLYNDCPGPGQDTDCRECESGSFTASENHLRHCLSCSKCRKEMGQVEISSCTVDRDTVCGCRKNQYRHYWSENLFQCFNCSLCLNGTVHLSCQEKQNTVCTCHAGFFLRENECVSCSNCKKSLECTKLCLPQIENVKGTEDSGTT

TNFRSF7(CD27) = target: T3, TNFRSF7(CD27) (UniProt P26842 21-192, limits assumed); assay: as above
T3 construct: Bought protein
T3 sequence (looked up): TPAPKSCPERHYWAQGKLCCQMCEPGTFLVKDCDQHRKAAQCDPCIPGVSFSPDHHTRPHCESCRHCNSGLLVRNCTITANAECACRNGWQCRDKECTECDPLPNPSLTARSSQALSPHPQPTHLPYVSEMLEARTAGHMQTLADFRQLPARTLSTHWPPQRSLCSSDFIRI

human CD40 ECD = target: T4, human CD40 ECD (human, UniProt P25942 21-194); assay: as above
T4 construct: also called TNFRSF5(CD40); huCD40
T4 sequence (P25942 21-194 limits assumed): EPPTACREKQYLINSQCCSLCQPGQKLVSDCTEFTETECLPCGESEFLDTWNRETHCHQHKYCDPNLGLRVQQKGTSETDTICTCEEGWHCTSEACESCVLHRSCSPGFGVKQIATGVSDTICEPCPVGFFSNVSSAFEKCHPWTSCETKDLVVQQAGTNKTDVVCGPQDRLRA

TNFRSF1B(CD120b) = target: T5, TNFRSF1B(CD120b) (UniProt P20333 23-257); assay: as above
T5 construct: Bought protein
T5 sequence (looked up): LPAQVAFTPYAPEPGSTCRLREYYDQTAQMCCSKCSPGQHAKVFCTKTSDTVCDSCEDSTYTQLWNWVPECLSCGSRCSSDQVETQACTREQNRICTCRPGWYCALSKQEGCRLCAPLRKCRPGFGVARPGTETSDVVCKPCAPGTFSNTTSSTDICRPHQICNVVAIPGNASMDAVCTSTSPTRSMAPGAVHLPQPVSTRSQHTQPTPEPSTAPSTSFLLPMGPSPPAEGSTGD

[3] = target: T1, full-length human CD137 (huCD137); assay: flow cytometry ligand competition on Hut78/huCD137: human CD137 ligand ECD-mIgG2a in the presence of serially diluted antibody, ligand detected with goat anti-murine IgG-APC; blocked ligand: m5
[4] = target: T6, GPC3 (protein used for the TAA KD of Table 23) (UniProt P51654 25-559, limits assumed); assay: method and GPC3 construct not stated (TAA KD)
T6 construct: also called Glypican 3
T6 sequence (P51654 25-559 limits assumed): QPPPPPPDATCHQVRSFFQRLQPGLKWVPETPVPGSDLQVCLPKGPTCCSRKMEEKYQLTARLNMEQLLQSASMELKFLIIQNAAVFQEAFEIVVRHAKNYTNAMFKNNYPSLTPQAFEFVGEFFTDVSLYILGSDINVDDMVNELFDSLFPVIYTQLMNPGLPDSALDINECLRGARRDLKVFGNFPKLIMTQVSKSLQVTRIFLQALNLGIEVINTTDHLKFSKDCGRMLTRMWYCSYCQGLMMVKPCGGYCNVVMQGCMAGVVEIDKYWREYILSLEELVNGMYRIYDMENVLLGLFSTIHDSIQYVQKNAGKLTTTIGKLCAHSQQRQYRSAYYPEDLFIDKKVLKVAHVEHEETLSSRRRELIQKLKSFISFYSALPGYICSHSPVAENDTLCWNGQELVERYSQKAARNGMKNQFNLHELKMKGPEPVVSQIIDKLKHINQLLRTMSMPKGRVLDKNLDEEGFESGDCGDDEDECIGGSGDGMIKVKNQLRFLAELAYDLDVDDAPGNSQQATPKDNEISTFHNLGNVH

[5] = target: T7, Glypican 3 (GPC3) on cells (human, UniProt P51654 25-554); assay: flow cytometry on HepG2 cells [panel C]
T7 construct: whole, on cells; also called HepG2; Huh7
T7 sequence (P51654 25-554 limits assumed): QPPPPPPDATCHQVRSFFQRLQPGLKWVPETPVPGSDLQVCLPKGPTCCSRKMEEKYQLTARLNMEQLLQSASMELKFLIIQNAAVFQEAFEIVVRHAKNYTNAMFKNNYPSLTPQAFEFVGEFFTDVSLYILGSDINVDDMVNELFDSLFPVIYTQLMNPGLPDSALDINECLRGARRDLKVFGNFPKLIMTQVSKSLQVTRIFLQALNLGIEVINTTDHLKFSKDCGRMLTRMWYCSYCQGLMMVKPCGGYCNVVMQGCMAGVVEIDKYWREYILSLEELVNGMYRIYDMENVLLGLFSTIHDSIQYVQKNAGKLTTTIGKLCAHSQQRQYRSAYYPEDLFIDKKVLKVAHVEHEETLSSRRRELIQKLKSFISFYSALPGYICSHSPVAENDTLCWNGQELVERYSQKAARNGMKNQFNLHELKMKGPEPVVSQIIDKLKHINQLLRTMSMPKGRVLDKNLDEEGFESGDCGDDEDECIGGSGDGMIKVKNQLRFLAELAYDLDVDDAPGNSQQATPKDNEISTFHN

[6] = target: T8, human CD137 ECD (AA 24-183) (human, UniProt Q07011 24-183); assay: method and huCD137 construct not stated
T8 construct: also called huCD137

human CEA on cells [7] = target: T9, human CEA on cells (human, UniProt P06731 35-685); assay: flow cytometry on MKN45 cells [panel A]
T9 construct: whole, on cells; also called CT26/CEA; MKN45
T9 sequence (looked up): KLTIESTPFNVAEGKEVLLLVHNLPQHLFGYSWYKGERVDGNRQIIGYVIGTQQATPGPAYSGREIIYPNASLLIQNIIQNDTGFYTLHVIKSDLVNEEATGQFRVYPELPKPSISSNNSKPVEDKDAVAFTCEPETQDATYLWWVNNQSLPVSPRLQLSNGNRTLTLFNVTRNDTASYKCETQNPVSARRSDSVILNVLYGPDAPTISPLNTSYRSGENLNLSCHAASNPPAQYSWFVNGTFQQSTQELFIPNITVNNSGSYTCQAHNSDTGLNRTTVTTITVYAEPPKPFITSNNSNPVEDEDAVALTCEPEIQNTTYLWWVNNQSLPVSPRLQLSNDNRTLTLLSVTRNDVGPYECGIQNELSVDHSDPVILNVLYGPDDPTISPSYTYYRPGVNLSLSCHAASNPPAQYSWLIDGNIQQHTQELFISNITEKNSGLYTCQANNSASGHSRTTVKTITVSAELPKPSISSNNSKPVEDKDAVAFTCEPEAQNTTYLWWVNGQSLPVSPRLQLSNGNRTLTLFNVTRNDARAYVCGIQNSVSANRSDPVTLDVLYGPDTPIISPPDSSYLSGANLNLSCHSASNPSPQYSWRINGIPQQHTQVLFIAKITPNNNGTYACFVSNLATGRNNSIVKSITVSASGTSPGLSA

human CEA on cells [8] = target: T9, human CEA on cells; assay: flow cytometry on CT26/CEA cells [panel A]
[9] = target: T1, full-length human CD137 (huCD137); assay: flow cytometry on Hut78/huCD137 cells [panel B]
human CD137 ECD-mIgG2a [10] = target: human CD137 ECD-mIgG2a (human); assay: SPR, human CD137 ECD-mIgG2a
[11] = target: T1, full-length human CD137 (huCD137); assay: flow cytometry on Hut78/huCD137 cells
human CD137 ECD-mIgG2a [12] = target: human CD137 ECD-mIgG2a (human); assay: SPR, antibody captured on anti-human Fc surface; analyte taken as human CD137 ECD-mIgG2a
human CD137 ECD-mIgG2a [13] = target: human CD137 ECD-mIgG2a (human); assay: SPR, multispecific antibody captured on anti-human IgG Fc chip, human CD137 ECD-mIgG2a flowed over; Table 15, comparison run with the affinity-matured variants
recombinant CEA protein = target: T10, recombinant CEA protein (human, UniProt P06731 35-685, limits assumed); assay: method and CEA construct not stated (TAA KD)
T10 construct: also called recombinant soluble CEA; in-house made recombinant CEA proteins
T10 sequence (looked up): T9 sequence (looked up)

B5: A-CD137×CEA-M3 (bispecific antibody, human IgG1, kappa)
heavy: QVQLVQSGAEVKKPGASVKVSCKASGYIFTSYYLHWVRQAPGQGLEWIGYINPQTGKTSYAQKFQGRVTMTRDTSTSTVYMELSSLRSEDTAVYYCAREYGNYNYPLDYWGQGTLVTVSSASTKGPSVFPLAPSSKSTSGGTAALGCLVKDYFPEPVTVSWNSGALTSGVHTFPAVLQSSGLYSLSSVVTVPSSSLGTQTYICNVNHKPSNTKVDKKVEPKSCDKTHTCPPCPAPPAAGPSVFLFPPKPKDTLMISRTPEVTCVVVDVSHEDPEVKFNWYVDGVEVHNAKTKPREEQYNSTYRVVSVLTVLHQDWLNGKEYKCKVSNKALAAPIEKTISKAKGQPREPQVYTLPPSREEMTKNQVSLTCLVKGFYPSDIAVEWESNGQPENNYKTTPPVLDSDGSFFLYSKLTVDKSRWQQGNVFSCSVMHEALHNHYTQKSLSLSPGKGGGGSEVQLLESGGGLVQPGGSLRLSCAASGFTLSAEDVGWVRQAPGKGLEWVSAILDFGGSTYYAESVKGRFTISRDNAKNTLYLQMSSLRAEDTAVYYCARVVYHAGGGVTFDYWGQGTLVTVSS
light: DIQMTQSPSSLSASVGDRVTITCRASENQYGYLAWYQQKPGKVPKLLIYNYKNLVEGVPSRFSGSGSGTDFTLTISSLQPEDVATYYCQHHLGTPYTFGQGTKVEIKRTVAAPSVFIFPPSDEQLKSGTASVVCLLNNFYPREAKVQWKVDNALQSGNSQESVTEQDSKDSTYSLSSTLTLSKADYEKHKVYACEVTHQGLSSPVTKSFNRGEC
notes: The chain is therefore built from its pieces
- Kd (human CD137 ECD-mIgG2a [10]): 255 nM
- EC50 [11]: 0.52 µg/mL
- Kd (human CD137 ECD-mIgG2a [12]): 255 nM
- koff (human CD137 ECD-mIgG2a [12]): 0.00267 s⁻¹
- kon (human CD137 ECD-mIgG2a [12]): 10500 M⁻¹ s⁻¹
- Kd (human CD137 ECD-mIgG2a [13]): 289 nM

B6: BE-146 (CEA × CD137) (bispecific antibody, human IgG1, kappa)
heavy: B5 heavy with L483V, F508K, V553I, Y565T, W566R, L571Q
light: B5 light
notes: Module ratio 2:2
- EC50 (read off the curve) (human CEA on cells [7]): ~0.5 µg/mL
- Kd (recombinant CEA protein): 6.5 nM
- Kd [6]: 167 nM

Second part, led by results:

- IC50 [1]: 0.42 µg/mL
- IC50 (read off the curve) (human CD137 ECD-mIgG2a [2]): ~1 µg/mL
B1: human CD137 ligand-mIgG2a (Fc fusion)
chain: EPRGPTIKPCPPCKCPAPNLLGGPSVFIFPPKIKDVLMISLSPIVTCVVVDVSEDDPDVQISWFVNNVEVHTAQTQTHREDYNSTLRVVSALPIQHQDWMSGKEFKCKVNNKDLPAPIERTISKPKGSVRAPQVYVLPPPEEEMTKKQVTLTCMVTDFMPEDIYVEWTNNGKTELNYKNTEPVLDSDGSYFMYSKLRVEKKNWVERNSYSCSVVHEGLHNHHTTKSFSRTPGKGGGGSREGPELSPDDPAGLLDLRQGMFAQLVAQNVLLIDGPLSWYSDPGLAGVSLTGGLSYKEDTKELVVAKAGVYYVFFQLELRRVVAGEGSGSVSLALHLQPLRSAAGAAALALTVDLPPASSEARNSAFGFQGRLLHLSAGQRLGVHLHTEARARHAWQLTQGATVLGLFRVTPEIPAGLPSPRSE
notes: also called human CD137 ligand ECD-mIgG2a; huCD137 ligand

- binding result (TNFRSF1A(CD120a)): no binding
- binding result (TNFRSF7(CD27)): no binding
- binding result (human CD40 ECD): no binding
- binding result (TNFRSF1B(CD120b)): no binding
- IC50 (read off the curve) [3]: ~0.03 µg/mL
B2: Urelumab analog (antibody, human IgG4 S228P, kappa, V domains shown)
VH: QVQLQQWGAGLLKPSETLSLTCAVYGGSFSGYYWSWIRQSPEKGLEWIGEINHGGYVTYNPSLESRVTISVDTSKNQFSLKLSSVTAADTAVYYCARDYGPGNYDWYFDLWGRGTLVTVSS
VL: EIVLTQSPATLSLSPGERATLSCRASQSVSSYLAWYQQKPGQAPRLLIYDASNRATGIPARFSGSGSGTDFTLTISSLEPEDFAVYYCQQRSNWPPALTFGGGTKVEIKR

- Kd [4]: 1.47 nM
- EC50 (read off the curve) [5]: ~0.7 µg/mL
- Kd [6]: 182 nM
B3: BE-830 (GPC3 × CD137) (bispecific antibody, human IgG1, kappa)
heavy: not shown
light: DVVMTQSPLSLPVTPGEPASISCRSSQSLVHSNRNTYLHWYLQKPGQSPQLLIYKVSNRFSGVPDRFSGSGSGTDFTLKISRVEAEDVGVYYCSQNTHVPPTFGQGTKLEIKRTVAAPSVFIFPPSDEQLKSGTASVVCLLNNFYPREAKVQWKVDNALQSGNSQESVTEQDSKDSTYSLSSTLTLSKADYEKHKVYACEVTHQGLSSPVTKSFNRGEC
notes: also called CD137×GPC3; GPC3×CD137 multispecific antibody BE-830

- EC50 (read off the curve) (human CEA on cells [7]): ~0.5 µg/mL
- EC50 (read off the curve) (human CEA on cells [8]): ~1 µg/mL
B4: anti-CEA Ab (IgG1) (antibody, V domains shown)
VH: QVQLVQSGAEVKKPGASVKVSCKASGYIFTSYYLHWVRQAPGQGLEWIGYINPQTGKTSYAQKFQGRVTMTRDTSTSTVYMELSSLRSEDTAVYYCAREYGNYNYPLDYWGQGTLVTVSS
VL: DIQMTQSPSSLSASVGDRVTITCRASENQYGYLAWYQQKPGKVPKLLIYNYKNLVEGVPSRFSGSGSGTDFTLTISSLQPEDVATYYCQHHLGTPYTFGQGTKVEIKR
notes: also called anti-CEA antibody
- binding result [9]: no binding (tested: just above 10^2 ug/ml)
